From patent publication US20220242973A1 (Molecular Partners, published 2022)

Experiments:
[1] = target: T1, Human FAP expressed on the cell surface (WI38, CHO-FAP1.9, U87MG cells) (human, UniProt Q12884 1-760); test: FACS on U87MG cells (FAP on the cell surface), His-tag detected with Penta-His AF647 conjugate, median fluorescence intensity
T1 construct: whole, on cells; Endogenous on WI38 and U87MG cells; from a human FAP cDNA (OriGene) in CHO-FAP1.9 cells; also called hFAP; FAP+ cells
T1 sequence (looked up): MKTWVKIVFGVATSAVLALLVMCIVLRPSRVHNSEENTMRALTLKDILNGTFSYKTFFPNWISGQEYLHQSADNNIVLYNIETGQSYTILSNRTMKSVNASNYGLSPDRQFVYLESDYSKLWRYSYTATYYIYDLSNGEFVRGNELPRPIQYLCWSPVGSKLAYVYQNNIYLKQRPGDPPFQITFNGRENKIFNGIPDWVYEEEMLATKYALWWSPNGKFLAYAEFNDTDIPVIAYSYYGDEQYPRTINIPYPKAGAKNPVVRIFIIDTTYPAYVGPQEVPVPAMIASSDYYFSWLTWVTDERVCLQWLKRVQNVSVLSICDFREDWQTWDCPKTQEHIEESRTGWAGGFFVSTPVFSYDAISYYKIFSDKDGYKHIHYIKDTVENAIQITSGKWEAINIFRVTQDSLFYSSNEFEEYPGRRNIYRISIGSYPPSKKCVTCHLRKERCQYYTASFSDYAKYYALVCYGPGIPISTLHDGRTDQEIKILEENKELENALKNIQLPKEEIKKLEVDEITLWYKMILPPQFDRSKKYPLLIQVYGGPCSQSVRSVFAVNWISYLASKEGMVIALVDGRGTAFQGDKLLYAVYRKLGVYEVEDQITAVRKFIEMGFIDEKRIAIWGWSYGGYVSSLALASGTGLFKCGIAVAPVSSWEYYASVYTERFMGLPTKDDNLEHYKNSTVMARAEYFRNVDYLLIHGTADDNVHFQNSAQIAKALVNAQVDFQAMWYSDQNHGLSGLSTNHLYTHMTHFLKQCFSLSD
Protocol: (§1) In order to determine whether the fusion of a biologically active molecule to a FAP-specific ankyrin repeat domain affects the ability of the molecule to specifically recognize and bind to FAP expressed on the surface of cells, the binding of selected ankyrin repeat fusion proteins to FAP-expressing cells was tested. U87 MG cells and WI38 cells are known to express FAP on the cell surface and they were chosen as representative cells for these experiments. FAP expression on the U87 MG and WI38 cells was confirmed by FACS analysis (data not shown).
(§2) Using multi-well plates, 40,000 cells (either U87MG or WI38) were added per well in 50 μl of PBS. 50 μl of appropriate dilutions (2× dilution steps) of ankyrin repeat fusion protein (DARPin® protein #40 or DARPin® protein #41) was then added to the cells and incubated for 30 minutes on ice. After the ankyrin repeat fusion protein-binding reaction, cells were washed twice with PBS. Direct immunofluorescent detection of the His-tagged ankyrin repeat fusion proteins using Penta-His AF647 conjugate (QIAgen) and determination of live cells using LIVE/DEAD™ Fixable Green Dead Cell Stain Kit (ThermoFisher) were then performed together in one step. […] Acquisition and FACS analysis, including the determination of median fluorescence intensity (MFI), were done within 5 days after staining using an AttuneNxT instrument. […]

[2] = target: T1, Human FAP expressed on the cell surface …; test: FACS on WI38 cells (FAP on the cell surface), His-tag detected with Penta-His AF647 conjugate, median fluorescence intensity
Protocol: as §1, §2

B1: DARPin® protein #40 (designed binder)
chain: MRGSHHHHHHGSDLGKKLLEAARAGQDDEVRELLKAGADVNAKDYFSHTPLHLAARNGHLKIVEVLLKAGADVNAKDFAGKTPLHLAANEGHLEIVEVLLKAGADVNAQDIFGKTPADIAADAGHEDIAEVLQKAAGSPTPTPTTPTPTPTTPTPTPTGSDLGKKLLEAARAGQDDEVRILLAAGADVNAKDVLGWTPLHLAAFEGHLEIVEVLLKAGADVNAKDKKGWTPLQLAARTGHLEIVEVLLKAGADVNAKDHIGATPLHLAAWQGHPEIVEVLLKAGADVNAQDKSGKTPADLAADAGHEDIAEVLQKAA
notes: Fusion of a serum albumin-specific and a FAP-specific ankyrin repeat domain
EC50 (read off the curve) [1]: ~2 nM | EC50 (read off the curve) [2]: ~2 nM
